Data on two molecules can be found in US20140087995A1 (published 2014).

The target of test [1] is T1, human amylin receptor (amylin 3(a) receptor: human calcitonin receptor with RAMP-3) (human, UniProt P30988 25-474; O60896 24-148, limits assumed).
T1 construct: whole, on cells; Whole cells in the luciferase assay (Assay II a); also called hAmylin-R; hAmylinR
T1 sequence (looked up) 1: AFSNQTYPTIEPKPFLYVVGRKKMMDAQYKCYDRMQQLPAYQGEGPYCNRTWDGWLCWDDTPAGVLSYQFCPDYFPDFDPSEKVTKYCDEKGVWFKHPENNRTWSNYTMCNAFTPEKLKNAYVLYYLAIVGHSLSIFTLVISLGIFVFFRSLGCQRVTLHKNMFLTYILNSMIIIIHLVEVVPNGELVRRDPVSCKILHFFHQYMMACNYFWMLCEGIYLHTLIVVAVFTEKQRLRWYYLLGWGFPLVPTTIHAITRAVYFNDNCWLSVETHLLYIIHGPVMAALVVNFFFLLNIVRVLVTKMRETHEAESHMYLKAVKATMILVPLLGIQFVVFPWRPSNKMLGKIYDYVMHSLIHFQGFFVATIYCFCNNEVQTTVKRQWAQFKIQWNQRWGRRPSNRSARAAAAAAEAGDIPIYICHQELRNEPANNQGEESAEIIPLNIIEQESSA
T1 sequence (looked up) 2: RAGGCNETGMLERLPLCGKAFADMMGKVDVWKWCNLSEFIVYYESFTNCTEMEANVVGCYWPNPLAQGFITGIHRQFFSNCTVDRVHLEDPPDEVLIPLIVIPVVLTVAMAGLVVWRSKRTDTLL
The test can be described thus: SPA competition binding on membranes of BHK cells with human calcitonin receptor + RAMP-3; displacement of 125I-rat amylin (Assay V). The essentials: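 SPA beads with BHK Amylin 3(a)/CRE-luc cell membranes (35 ng/μL final) in 50 mM Hepes pH 7.4, 1 mM CaCl2, 5 mM MgCl₂, 0.1% OA, 0.02% Tween20.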

In test [2] the target is T2, human calcitonin receptor (human, UniProt P30988 25-474).
T2 sequence (looked up): T1 sequence (looked up) 1
Kind of test: cell-based or functional assay.

Numbered stars: 1 amine (or outer) side, 2 acyl side, 3 side chain; on linkers, the order of the positions; unused ones are H or OH. Bridge positions count the residues as written; N and C are the ends. Side chains are listed from the residue outwards. Ends that are not written are not given here. * marks the point of attachment. C20 diacid = O=C(O)CCCCCCCCCCCCCCCCCCC(=O)*; γGlu = O=C(O)[C@H](CCC(=O)[*:2])N[*:1]

B1: N^α1N^α1-[(4S)-4-carboxy-4-(19-carboxynonadecanoylamino)butanoyl]-[Glu14,Arg17,Pro21,Pro27,Glu35]-h-amylin (peptide)
peptide: {C20 diacid-γGlu}-KCNTATCATQRLAEFLRHSSPNFGAIPSSTNVGSETY-NH2
modifications: disulfide 2-7
SMILES: CC[C@H](C)[C@H](NC(=O)[C@H](C)NC(=O)CNC(=O)[C@H](Cc1ccccc1)NC(=O)[C@H](CC(N)=O)NC(=O)[C@@H]1CCCN1C(=O)[C@H](CO)NC(=O)[C@H](CO)NC(=O)[C@H](Cc1c[nH]cn1)NC(=O)[C@H](CCCNC(=N)N)NC(=O)[C@H](CC(C)C)NC(=O)[C@H](Cc1ccccc1)NC(=O)[C@H](CCC(=O)O)NC(=O)[C@H](C)NC(=O)[C@H](CC(C)C)NC(=O)[C@H](CCCNC(=N)N)NC(=O)[C@H](CCC(N)=O)NC(=O)[C@@H](NC(=O)[C@H](C)NC(=O)[C@@H]1CSSC[C@H](NC(=O)[C@H](CCCCN)NC(=O)CC[C@H](NC(=O)CCCCCCCCCCCCCCCCCCC(=O)O)C(=O)O)C(=O)N[C@@H](CC(N)=O)C(=O)N[C@@H]([C@@H](C)O)C(=O)N[C@@H](C)C(=O)N[C@@H]([C@@H](C)O)C(=O)N1)[C@@H](C)O)C(=O)N1CCC[C@H]1C(=O)N[C@@H](CO)C(=O)N[C@@H](CO)C(=O)N[C@H](C(=O)N[C@@H](CC(N)=O)C(=O)N[C@H](C(=O)NCC(=O)N[C@@H](CO)C(=O)N[C@@H](CCC(=O)O)C(=O)N[C@H](C(=O)N[C@@H](Cc1ccc(O)cc1)C(N)=O)[C@@H](C)O)C(C)C)[C@@H](C)O
notes: also called compound 22
By IC50 is commonly meant the midpoint of a concentration-inhibition curve. B1: the IC50 in test [1] is 0.794 nM. In addition, in test [2], the “Ratio hCT/hAmylin funct.” value was 3.8 ratio.

B2: N^ε1-[(4S)-4-carboxy-4-(19-carboxynonadecanoylamino)butanoyl]-[Ala14,Arg17,Pro21,Pro27,Pro34]-h-amylin (peptide)
peptide: K([γGlu-C20 diacid])CNTATCATQRLAAFLRHSSPNFGAIPSSTNVGPNTY-NH2
modifications: disulfide 2-7; N-terminus assumed
SMILES: CC[C@H](C)[C@H](NC(=O)[C@H](C)NC(=O)CNC(=O)[C@H](Cc1ccccc1)NC(=O)[C@H](CC(N)=O)NC(=O)[C@@H]1CCCN1C(=O)[C@H](CO)NC(=O)[C@H](CO)NC(=O)[C@H](Cc1c[nH]cn1)NC(=O)[C@H](CCCNC(=N)N)NC(=O)[C@H](CC(C)C)NC(=O)[C@H](Cc1ccccc1)NC(=O)[C@H](C)NC(=O)[C@H](C)NC(=O)[C@H](CC(C)C)NC(=O)[C@H](CCCNC(=N)N)NC(=O)[C@H](CCC(N)=O)NC(=O)[C@@H](NC(=O)[C@H](C)NC(=O)[C@@H]1CSSC[C@H](NC(=O)[C@@H](N)CCCCNC(=O)CC[C@H](NC(=O)CCCCCCCCCCCCCCCCCCC(=O)O)C(=O)O)C(=O)N[C@@H](CC(N)=O)C(=O)N[C@@H]([C@@H](C)O)C(=O)N[C@@H](C)C(=O)N[C@@H]([C@@H](C)O)C(=O)N1)[C@@H](C)O)C(=O)N1CCC[C@H]1C(=O)N[C@@H](CO)C(=O)N[C@@H](CO)C(=O)N[C@H](C(=O)N[C@@H](CC(N)=O)C(=O)N[C@H](C(=O)NCC(=O)N1CCC[C@H]1C(=O)N[C@@H](CC(N)=O)C(=O)N[C@H](C(=O)N[C@@H](Cc1ccc(O)cc1)C(N)=O)[C@@H](C)O)C(C)C)[C@@H](C)O
notes: also called compound 94
As for B2, in test [1], the IC50 turned out to be 0.148 nM. For the same molecule, the “Ratio hCT/hAmylin funct.” value in test [2] was determined as 4.5 ratio.
